Values belong to the substance of their own block, whether it stands above or below them.
Tests used:
Experiment in all cases: SDS-PAGE in the absence of reductant
[1] = target: endogenous COS-1 cell TSP (African green monkey (endogenous in COS-1))
[2] = target: truncated TSP protein Pro449 (human)
[3] = target: truncated TSP protein Val333 (human)

truncated TSP protein Pro449 (domain or fragment), sequence (P07996 374-552): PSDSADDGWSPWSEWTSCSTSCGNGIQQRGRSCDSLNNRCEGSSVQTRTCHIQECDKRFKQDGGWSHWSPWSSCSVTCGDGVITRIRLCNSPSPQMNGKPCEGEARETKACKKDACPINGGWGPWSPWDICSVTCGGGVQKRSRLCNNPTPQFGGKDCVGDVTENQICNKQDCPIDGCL
truncated TSP protein Val333 (domain or fragment), sequence (P07996 374-552): as above

- stoichiometry N [1]: 3
Substance: endogenous COS-1 cell TSP (natural protein)

- stoichiometry N [2]: 3
Substance: truncated TSP protein Pro449 (domain or fragment)

- stoichiometry N [3]: 3
Substance: truncated TSP protein Val333 (domain or fragment)

From PMC2115704
